# Data from patent publication US10088487B2, “Method for the quantitative characterization of amyloid and/or aggregating peptides and/or proteins in a sample” (Forschungszentrum Juelich GmbH, priority 2013, dated 2018).
# Non-standard residues stand in square brackets, D forms with d. No end group written: not given here.
# Key:
# Aβ(1-42) oligomers = biological target: T1, Aβ(1-42) oligomers (Homo sapiens, UniProt P05067); assay: Density gradient centrifugation combined with RP-HPLC: effect of active ingredient on size distribution of Aβ(1-42) aggregates; type: biochemical; conditions: for quantity of Aβ oligomers in fractions 4 to 6: co-incubation 40 min, vs control without active ingredient
# T1 construct: 1 mg of lyophilized Aβ(1-42) (Bachem, Heidelberg); purchased Bachem, Heidelberg
# T1 sequence (P05067 672-713): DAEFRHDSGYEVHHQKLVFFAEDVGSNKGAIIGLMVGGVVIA
# Experimental: For the following examples of embodiments, only one ultracentrifuge and one HPLC system having a suitable separating column and a UV detector were required. In order to determine the reduction of the Aβ oligomer proportion in an aggregate mixture, pretreated and dried Aβ(1-42) peptide was dissolved in buffer and incubated until the greatest possible Aβ oligomer proportion was obtained. The active ingredient to be analyzed was then added to this oligomer-enriched sample.
# 1 mg of lyophilized Aβ(1-42) (Bachem, Heidelberg) was incubated, after being removed from the freezer, for 10 to 30 min at room temperature (RT) in order to equalize the temperature of the peptide pellet and of the surrounding environment and thus to avoid moisture condensing from the air. Thereafter, the Aβ peptide was dissolved in HFIP (1,1,1,3,3,3-hexafluoro-2-propanol) (Sigma-Aldrich, Taufkirchen) in a concentration of 1 mg/700 μl and incubated overnight at RT with shaking until full dissolution was achieved, in order to ensure that the Aβ(1-42) exists entirely as monomers at this point in time. The Aβ(1-42) was then aliquoted in an amount of 36 μg per Eppendorf vessel. To remove the HFIP, the aliquots were left to stand open under the extractor for approximately 30 min. The rotational vacuum concentrator (rotational vacuum concentrator RVC 2-18, Christ, Mainz-Mombach) was pre-cooled for approximately 30 min. The Aβ(1-42) aliquots were then dried for a further 30 min in the rotational vacuum concentrator so that the last HFIP residues could also evaporate off. The aliquoted, dried Aβ(1-42) was stored at −20° C. until use.
# Prior to the experiment, one Aβ(1-42) aliquot was dissolved to 80 μM in 100 μl of 10 mM NaH2PO4/Na2HPO4 buffer (Sigma-Aldrich, Taufkirchen), pH 7.4 and incubated at RT for 6 h with shaking. The incubation time of 6 h was optimized for this specific Aβ from this specific company in order to ensure that the largest possible proportion of the Aβ exists as oligomers, so as to be able to measure the reduction thereof as unambiguously as possible. For other Aβ peptides from other manufacturers, the incubation time may vary and should/can be adapted accordingly.
# Thereafter, the active ingredient candidate to be analyzed was added in a quantity of 10 or 20 μM. The co-incubation of the Aβ/active ingredient solution took place for 40 min at RT with continuous shaking. When no active ingredient was added (control), the Aβ solution was treated in the same way.
# The samples were then layered onto a pre-formed density gradient (see Table 1). The gradient material used consisted of a 60% strength (w/v) iodixanol solution named Optiprep™ (Axis-Shield, Oslo, Norway). It is a dimeric compound of iohexol having the systematic name 5,5-[(2-hydroxy-1,3-propanediyl)-bis(acetylimino)]bis-[N,N′-bis(2,3-hydroxypropyl)-2,4,6-triiodobenzenedicarboxamide]. […]
# The non-linear density gradient was centrifuged at 4° C. and 259,000×g in a TLS-55 swing-out rotor (Beckman-Coulter, Palo Alto, USA) for 3 h in a TL 100 ultracentrifuge (Beckman-Coulter, Palo Alto, USA). The density gradient is measured by refractometric determination of the iodixanol concentration in the individual fractions. An estimate of the size of sedimented protein particles based on the position in the gradient at the end of the centrifugation takes place on the basis of a calibration using marker proteins of known size and shape, which were analyzed under identical centrifugation conditions on the gradient. […]
# transgenic AD mice = conditions: oral administration with drinking water; cited from earlier work
# Aβ oligomers = conditions: according to what is presently known; cited from earlier work
# Aβ oligomers, sequence (P05067 672-711 limits assumed): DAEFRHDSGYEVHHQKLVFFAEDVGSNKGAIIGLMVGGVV
Substance,"quantity of Aβ oligomers in fractions 4 to 6 (Aβ(1-42) oligomers; 20 μM D3, 80 μM Aβ(1-42) pre-incubated 6 h)","proportion of large aggregates in fractions 11 to 14 (Aβ(1-42) oligomers; 20 μM D3, vs control without active ingredient)",cognitive capabilities of treated transgenic AD mice (transgenic AD mice),plaques in treated transgenic AD mice (transgenic AD mice),"effect on toxic Aβ oligomers (conversion into non-toxic, non-amyloidogenic, ThT-negative amorphous aggregates) (Aβ oligomers)","quantity of Aβ oligomers in fractions 4 to 6 (Aβ(1-42) oligomers; 10 μM D3D3, 80 μM Aβ(1-42) pre-incubated 6 h)","proportion of large aggregates in fractions 11 to 14 (Aβ(1-42) oligomers; 10 μM D3D3, vs control without active ingredient)",effect in eliminating oligomeric Aβ species compared with D3 (Aβ(1-42) oligomers; 10 μM D3D3 versus 20 μM D3)
D3: D-enantiomeric peptide identified by mirror image phage display selection against predominantly monomeric Aβ(1-42); SEQ ID NO: 1 ([dR][dP][dR][dT][dR][dL][dH][dT][dH][dR][dN][dR]),reduction in the quantity of oligomers,much greater,significantly improved cognitive capabilities,considerably fewer plaques,destroys the particularly toxic Aβ oligomers,–,–,–
D3D3: tandem dimer of the D-peptide D3; SEQ ID NO: 2 ([dR][dP][dR][dT][dR][dL][dH][dT][dH][dR][dN][dR][dR][dP][dR][dT][dR][dL][dH][dT][dH][dR][dN][dR]),–,–,–,–,–,reduction in the quantity of oligomers,much greater,much more pronounced effect
